From publication PMC6768651, “A ubiquitin-like domain controls protein kinase D dimerization and activation by trans-autophosphorylation” (The Journal of Biological Chemistry, 2019) come the findings set out here.

First the molecules themselves.
B1: DKF-1 ULD–C1a (DKF-1^1–151) [C. elegans] / itself (parent)
chain: MDGSQGSTDYGDHVVLRYGGTREMVPLIRHEQMLDMLMERARQIVQGFGNLDTRNMYLFRHEYNSPTLLYPITSASQITSGSILEIILVDRTEAAVIPHVVEPESYMRPTFCDFCGEMLTGLMRQGVKCKNCNGNFHKRCSNAARNNCGAP
B2: DKF-1 ULD (DKF-1^1–94) [C. elegans] / itself (parent)
chain: MDGSQGSTDYGDHVVLRYGGTREMVPLIRHEQMLDMLMERARQIVQGFGNLDTRNMYLFRHEYNSPTLLYPITSASQITSGSILEIILVDRTEA

Common to all, as to assay: SEC-MALS (static light scattering)
Settings in all cases: with itself

Variants of B1 are the subject of test [1].
The variants in test [2] derive from B1. This is another data set of the same source.
In test [3] the parent is B2. The source holds these as a separate data set.
Variants of B2 are the subject of test [4]. The source holds these as a separate data set.

As to chain 1 F59E, the screen value was determined as 1.09 with itself [1] and 18.7 kDa with itself [2].

As for chain 1 F59E, the results for the screen value with itself [3] and with itself [4] were 1.04 and 11.3 kDa, respectively.
